Source: paper PMC6475865

Key:
[1] = test system: Integrase IN_CRF consensus (HIV-1 CRF63_02A1 (consensus of Siberian/Ural isolates)); test: DRaCALA (nitrocellulose); conditions: 20 mM HEPES pH 7.2, 10 mM DTT, 7.5 mM MgCl2, 25 C; DRaCALA: 5 nM DNA, 0-500 nM IN, 20 min
[2] = test system: Integrase IN_A (HIV-1 subtype A strain FSU-A); test: DRaCALA (nitrocellulose); conditions: 20 mM HEPES pH 7.2, 10 mM DTT, 7.5 mM MgCl2, 25 C; DRaCALA: 5 nM DNA, 0-500 nM IN, 20 min

Question: Which results are given for “GTGTGGAAAATCTCTAGCAGT (double strand) [U5B/U5A duplex]”?
Answer: Kd [1]: 23 nM; Kd [2]: 25 nM
